Changes are numbered by the printed parent chain.

This is an account of results in patent US20230331827A1, “POTASSIUM CHANNEL INHIBITORS” (priority 2017, published 2023).

The test system of one experiment is trypsin. In words: Phage TRF binding assay on immobilised biotinylated trypsin (monoclonal phage ELISA). The following applies: EETI-II in 5-3 frame, value in brackets after clone name. The protocol:
Phage display technology facilitates isolation of binders to any given target from large combinatorial repertoires based on proteins and peptides that can be presented on the surface of filamentous phage^105. In order to isolate functional knottin-antibody fusions from the KnotBody libraries multiple rounds of phage display selections on trypsin (cognate antigen for the EETI-II donor) were carried out. Phage particles were prepared by rescuing KnotBody libraries using trypsin cleavable helper phage ^102,106Two rounds of phage display selections were performed on 10 µg/ml biotinylated trypsin immobilised on Streptavidin (for Round-1) or Neutravidin (for round-2) coated Maxisorp™ immunotubes (Thermo Scientific, Cat No. 444202). In both rounds of selection, phage libraries were pre-incubated with streptavidin coated paramagnetic beads (Thermo Fisher Scientific, Cat. No. 11205D). These beads were removed prior to the addition the phage to the antigen tubes to limit the streptavidin binders entering the selection. Polyclonal phage preparations from round-2 selection outputs were analysed for trypsin binding using a time resolved fluorescence (TRF) binding assay. In this assay, polyclonal phage binding to biotinylated trypsin immobilised on neutravidin (Thermo Fisher Scientific, Cat. No 31000) coated Maxisorp™ plates (Thermo Scientific, Cat. No. 437111) was detected using a mouse anti-M13 antibody (GE Healthcare, Cat. No. 27-9420-01) followed by europium conjugated anti-mouse antibody (Perkin Elmer, Cat. No. AD0124).
In order to identify monoclonal KnotBodies with desired binding characteristics, 94 individual clones derived from 2 rounds of selection using EETI-II CDR1 or CDR2 libraries were picked into 96 well culture plates and phage were prepared from each clone. Methods for screening by monoclonal phage ELISA are known in the art^107. […] Clones with >3x binding signal above background were picked as positive clones and sequenced to identify unique clones. 14 and 42 unique binders were identified from EETI-II CDR1 and EETI-II CDR2 libraries respectively (Table 1). 18 binders from the EETI-II CDR2 library and 3 binders from the EETI-II-CDR1 library were chosen for further characterisation based on their VL and linker sequence diversity. These binders were assigned new clone identification numbers (Table 2).
The trypsin binding capability of EETI-II is attributed to proline (Pro3) and arginine (Arg4) residues present in its loop1 (GCPRILMRC; SEQ ID NO: 68). […] Monoclonal phage was prepared from the 21 selected clones and their mutant equivalents. […] Replacement of the trypsin-binding residues of EETI-II abolished the ability of all KnotBody clones to bind to trypsin (Table 3). In order to confirm that the loss of trypsin binding was not due to reduced expression or display of pIII fusion phage was prepared from 11 (randomly chosen) KnotBodies and their GlyAla variants were analysed on a western blot using an antibody which recognises the product of gene 3 (pIII) using an anti-pIII antibody (MoBiTec GmbH) (FIG. 6).
Bovine antibodies have been described with natural ultra-long VH CDR3s containing a solvent exposed double stranded antiparallel sheet approximately 20 A° in length (referred to as the stalk) presenting a folded domain stabilised by 3 disulfide bonds (referred to as the Knob)^10. Zhang and colleagues have shown that the Knob domains of these cow ultra-long VH CDR3 antibodies (ULVC-Ab) can be replaced with other folded proteins such as erythropoietin^13. In this example, we assess the ability of a cow ULVC-Ab to present functional knottin fusions on phage in comparison with a KnotBody. In order to create a Knottin-cow UCLA fusion, the sequence between the first and the last cysteines of the knob region of the Cow ULVC-Ab BLV1H12 was replaced with the sequence of the trypsin binding knottin; EETI-II (EETI-II cow ULVC-Ab). A gene fragment encoding this construct was synthesised (Integrated DNA technologies, Table 21). […]
(In general: An ELISA detects its analyte on a solid surface through an enzyme-linked reagent.)

Another experiment concerns the target T1, human Kv1.3 (huKv1.3) (Homo sapiens, UniProt P22001).
T1 construct: host or cells: CHO
In words: QPatch automated patch-clamp, CHO cells stably expressing human Kv1.3 (Examples 19-21). The settings on record: huKv1.3, four-point curves of FIG. 32, Table E19; read-out: IC50. In kind it is cell-based. The method, then:
The effect of these KnotBodies on cells expressing human Kv1.3 (huKv1.3) channel was assessed using the QPatch automated patch-clamp platform (Sophion, Ballerup, Denmark). For the testing of Kv1.3 ion channel currents, CHO cells stably expressing human Kv1.3 (GenBank accession number NM_002232.2; cell line catalogue number CT6133, Charles River Discovery, Cleveland, USA) were subjected to a QPatch electrophysiology assay in the presence or absence of the KnotBody fusions or the antibody isotypes (negative controls). Internal and external physiological solutions were freshly prepared prior to the assay. The extracellular solution contained 145 mM NaCl, 4 mM KC1, 2 mM CaC12, 1 mM MgC12, 10 mM HEPES and 10 mM glucose; the pH was adjusted to 7.4 with NaOH; the osmolarity was ~ 305 mOsm/L. The intracellular solution contained: KF (120 mM), KC1 (20 mM), HEPES (10 mM) EGTA (10 mM); the pH was adjusted to 7.2 with KOH; osmolarity was ~ 300 mOsm/L.
(§1) A series of depolarising voltage (channel activating) pulses were used to monitor the channel currents upon adding control (extracellular solution) to define a control baseline of current activity. To these measured control currents four, ascending concentrations of KnotBodies (including KB_A12_ShK and KB_A12_KTX as previously described in Example 8) or parental antibody isotypes (control molecules) were applied to the external bathing solution. KnotBodies KB_A12 and KB_A07 (EETI-II fusions) were used as isotype controls for the testing. From a holding voltage of -80 mV a depolarising, activating voltage pulses of +30 mV were applied for 300 ms, every 10 seconds. The elicited, maximum outward current values measured during the activating step for each solution exchange period, averaged (n = 3 - 6 for each concentration applied) and plotted as concentration-response curves (see FIG. 32). From these concentration-response curves IC50 values were calculated.
For the testing of Kv1.1 and Kv1.3, CHO-S expressing huKv1.1 (described above) or CHO cells stably expressing huKv1.3 (Charles River Lab) were analysed using the QPatch electrophysiology assay in the presence or absence of the KnotBody fusions. Internal and external physiological solutions were freshly prepared prior to the assay. The extracellular solution contained 145 mM NaCl, 4 mM KC1, 2 mM CaC12, 1 mM MgC12, 10 mM HEPES and 10 mM glucose; the pH was adjusted to 7.4 with NaOH; the osmolarity was ~ 305 mOsm/L. The intracellular solution contained: KF (120 mM), KC1 (20 mM), HEPES (10 mM) EGTA (10 mM); the pH was adjusted to 7.2 with KOH; osmolarity was ~ 300 mOsm/L.
as §1, with “(including previously described” for “(including”, “KB_A12_KTX” for “KB_A12_KTX as previously”, “[…]” for “+30 mV”, “33).” for “32).”, “calculated (see Table E20).” for “calculated.”
For the testing of Kv1.1 and Kv1.3, CHO-S expressing huKv1.1 (see Example 20 and below) or CHO cells stably expressing huKv1.3 (Charles River Lab) were analysed using the QPatch electrophysiology assay in the presence or absence of the KnotBody fusions - see details in Examples 19 and 20.
On the technique in general: Patch clamp records ionic current or voltage across a cell membrane.

T1 sequence (P22001 whole entry): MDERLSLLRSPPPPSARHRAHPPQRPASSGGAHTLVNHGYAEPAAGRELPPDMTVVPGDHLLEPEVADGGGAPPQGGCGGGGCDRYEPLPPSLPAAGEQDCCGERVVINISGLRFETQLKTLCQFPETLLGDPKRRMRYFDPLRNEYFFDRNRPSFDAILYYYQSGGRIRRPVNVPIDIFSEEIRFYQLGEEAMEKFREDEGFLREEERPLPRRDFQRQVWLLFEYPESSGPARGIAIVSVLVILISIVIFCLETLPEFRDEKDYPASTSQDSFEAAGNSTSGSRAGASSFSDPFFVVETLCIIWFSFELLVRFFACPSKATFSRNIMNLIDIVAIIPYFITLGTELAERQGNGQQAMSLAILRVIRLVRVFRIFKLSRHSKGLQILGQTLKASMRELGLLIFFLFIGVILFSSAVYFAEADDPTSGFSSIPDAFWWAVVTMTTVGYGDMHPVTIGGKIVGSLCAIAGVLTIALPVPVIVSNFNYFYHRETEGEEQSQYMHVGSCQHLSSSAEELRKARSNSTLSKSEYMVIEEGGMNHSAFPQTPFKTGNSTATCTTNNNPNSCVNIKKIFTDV

B1: F01: KnotBody with alternative 5-3 framing of EETI-II, VL CDR2 (protein)
chain: DIQMTQSPSSLSASVGDRVTITCRASQSISSYLNWYQQKPGKAPKLLIDAAGECGPNGFCGSGSDGGVCPRINMRCKQDSDCLAGCGRDSGVPSRFSGSGSGTDFTLTISSLQPEDFATYYCQQSYSTPWTFGQGTKVEIKRT
modifications: F01 (101798)
notes: KnotBody with alternative 5-3 framing of EETI-II, VL CDR2
For B1, the “ELISA signal from monoclonal phage ELISA” value with trypsin is “F01”.

B2: KB_A07_HsTx1 (antibody, V domains shown)
VH: EVQLVESGGGLVRPGGSLRLSCAASGFTFSSYAMSWVRQAPGKGLEWVSAISGSGGSTYYADSVKGRFTISRDNTKNSLYLQMTSLRADDTAFYYCVKDFGPGYGTGWFDYWGPGTLVTVSS
VL: DIQMTQSPSSLSASVGDRVTITCRASQSISSYLNWYQQKPGKAPKLLIYAAGVASCRTPKDCADPCRKETGCPYGKCMNRKCKCNRCSRSGVPSRFSGSGSGTDFTLTISSLQPEDFATYYCQQGASPPYTFGQGTKVEIKR
On to B2, for which the IC50 with human Kv1.3 (huKv1.3) was 4.7 nM.

B3: KB_A12_ADWX1: ADWX-1 in VL CDR2 of KB_A12, IgG (antibody, V domains shown)
VH: B2 VH
VL: QSVLTQPPSVSEAPRQRVTITCSGSSSNIGNNAVNWYQQLPGKAPKLLIYAAGRVGINVKCKHSRQCLKPCKDAGMRFGKCTNGKCHCTPKANSGVSDRFSAAKSGTSASLAINGLRSEDEADYYCAAWDDSLNGYVFGTGTKLTVLG
For the molecule B3, in the experiment with human Kv1.3 (huKv1.3), the IC50 worked out at 270 nM.

B4: C09: KnotBody with alternative 5-3 framing of EETI-II, VL CDR1 (protein)
chain: QSVLTQPPSVSEAPRQRVTITCGGKRCGPNGFCGSGSDGGVCPRILMRCKQDSDCLAGCTSNWYQQKPGQAPVLVVQDDSVRPSGIPERFSGSNSGNTATLTISRVEAGDGADYYCQVWDISSDLGVFGGGTKLTVLGQP
modifications: C09 (9820)
notes: KnotBody with alternative 5-3 framing of EETI-II, VL CDR1
Regarding B4, in the experiment on trypsin, the “ELISA signal from monoclonal phage ELISA” value was “C09 (9820)”.

B5: F03: KnotBody with alternative 5-3 framing of EETI-II, VL CDR2 (protein)
chain: QSVLTQPPSVSEAPRQRVTITCSGSSSNIGNNAVNWYQQLPGRAPKLLIYAAGGCGPNGFCGSGGDGGVCPRILMRCKQDSDCLAGCGAHSGIPERFSGSKSGTSASLAISGLRSEDEADYYCAAWDDSLNGWVFGGGTKVTVLGQP
modifications: F03 (67972)
notes: as for B1
As for B5, the “ELISA signal from monoclonal phage ELISA” value in the experiment on trypsin was “F03 (67972)”.

B6: F07: KnotBody with alternative 5-3 framing of EETI-II, VL CDR2 (protein)
chain: QSVLTQPPSVSEAPRQRVTITCSGSSSNIGNNAVNWYQQLPGKAPKLLIYAAGGCGPNGFCGSGSDGGVCPRILMRCKQDSDCLAGCGGQSGVPDRFSGSKSGTSASLAISRLQSEDEADYYCAAWDDSLNAYVFGTGTKVTVLGQP
modifications: F07 (72824)
notes: as for B1
Regarding B6, the “ELISA signal from monoclonal phage ELISA” value with trypsin is “F07 (72824)”.

B7: E05: KnotBody with alternative 5-3 framing of EETI-II, VL CDR2 (protein)
chain: B6 chain with G89A, V93I, D95E, R112G, D120H, A132G
modifications: E05 (118631)
notes: as for B1
Regarding B7, the “ELISA signal from monoclonal phage ELISA” value in the experiment with trypsin is “E05 (118631)”.

B8: E01: KnotBody with alternative 5-3 framing of EETI-II, VL CDR2 (protein)
chain: B6 chain with G89I, Q90H, P94S, G99D, R112G, A132G, V141L
modifications: E01 (127988)
notes: as for B1
On to B8, for which the “ELISA signal from monoclonal phage ELISA” value with trypsin was “E01 (127988)”.

B9: E08: KnotBody with alternative 5-3 framing of EETI-II, VL CDR2 (protein)
chain: B6 chain with G89I, V93I, D95E, R112G, Q114R, S129N, N131S, A132G, V141L
modifications: E08 (121047)
notes: as for B1
Turning to B9, the “ELISA signal from monoclonal phage ELISA” value with trypsin is reported as “E08 (121047)”.

B10: E09: KnotBody with alternative 5-3 framing of EETI-II, VL CDR2 (protein)
chain: B6 chain with G89T, V93I, D95E, R112G, Q114R, N131R, K140Q, V141L
modifications: E09 (70274)
notes: as for B1
With B10, the “ELISA signal from monoclonal phage ELISA” value with trypsin was “E09 (70274)”.

B11: E03: KnotBody with alternative 5-3 framing of EETI-II, VL CDR2 (protein)
chain: QSVLTQPPSVSEAPRQRVTITCSGSSSNIGNNAVNWYQQLPGKAPKLLIYAAGGCGPNGFCGSGSDGGVCPRILMRCKQDSDCLAGCGRNSGIPERFSGSKSGHTATLTISRVEAGDEADYYCQVWDSSSDHVLFGGGTKLTVLGQP
modifications: E03 (82495)
notes: as for B1
Turning to B11, the “ELISA signal from monoclonal phage ELISA” value in the experiment with trypsin is “E03 (82495)”.

As a reminder, the IC50 is the concentration that inhibits the measured activity by half.
